This is an account of results in PMC6616073.

No end group written: not given here.

First the molecules themselves.
B1: Lynx1 linear (2), synthetic 15-membered loop II fragment of human Lynx1 (peptide)
peptide: TTRTYYTPTRMKVSK
B2: Lynx1 short (3), shorter loop II fragment of human Lynx1 with terminal Cys, disulfide-cyclised (peptide)
peptide: CTRTYYTPTRMC
modifications: not fully specified (bridges); cysteine pairing not given here
B3: Lynx1 (1), synthetic loop II fragment of human Lynx1 with Cys added at both termini, disulfide-cyclised (peptide)
peptide: CTTRTYYTPTRMKVSKC
modifications: not fully specified (bridges); cysteine pairing not given here
B4: Lynx1 short linear (4), shorter loop II fragment of human Lynx1 with free terminal Cys (peptide)
peptide: CTRTYYTPTRMC

In the test the target is membrane-bound Torpedo californica nicotinic acetylcholine receptor (Torpedo californica). Kind of test: radioligand binding.
Chain of membrane-bound Torpedo californica nicotinic acetylcholine receptor (Torpedo californica) (P02710 25-461 limits assumed, chain 1 of 4): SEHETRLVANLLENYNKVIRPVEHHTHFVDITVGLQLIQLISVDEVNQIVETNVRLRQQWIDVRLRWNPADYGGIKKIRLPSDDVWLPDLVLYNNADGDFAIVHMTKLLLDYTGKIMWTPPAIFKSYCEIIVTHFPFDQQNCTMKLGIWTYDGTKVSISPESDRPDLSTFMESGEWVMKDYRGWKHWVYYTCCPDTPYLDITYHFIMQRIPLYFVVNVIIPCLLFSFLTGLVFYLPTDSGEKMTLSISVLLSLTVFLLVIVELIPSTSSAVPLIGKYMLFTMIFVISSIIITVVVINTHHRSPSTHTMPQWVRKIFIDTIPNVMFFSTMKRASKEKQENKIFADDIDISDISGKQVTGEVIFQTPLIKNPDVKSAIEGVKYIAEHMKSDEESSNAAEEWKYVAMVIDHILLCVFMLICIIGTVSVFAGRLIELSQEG
Chain of membrane-bound Torpedo californica nicotinic acetylcholine receptor (Torpedo californica) (P02712 25-493 limits assumed, chain 2 of 4, further chain): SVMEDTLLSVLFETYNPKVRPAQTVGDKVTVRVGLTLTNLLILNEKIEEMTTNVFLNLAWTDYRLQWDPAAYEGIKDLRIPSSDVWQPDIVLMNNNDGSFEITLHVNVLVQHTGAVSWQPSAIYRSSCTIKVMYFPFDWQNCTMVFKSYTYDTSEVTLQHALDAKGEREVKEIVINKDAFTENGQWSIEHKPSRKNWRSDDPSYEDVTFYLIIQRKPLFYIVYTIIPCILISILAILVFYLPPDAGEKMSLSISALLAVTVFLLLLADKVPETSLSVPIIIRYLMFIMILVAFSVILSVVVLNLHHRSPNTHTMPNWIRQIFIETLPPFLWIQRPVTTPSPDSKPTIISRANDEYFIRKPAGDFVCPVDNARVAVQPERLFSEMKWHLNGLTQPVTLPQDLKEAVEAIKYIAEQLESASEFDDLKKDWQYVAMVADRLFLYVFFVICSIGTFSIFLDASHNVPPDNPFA
Chain of membrane-bound Torpedo californica nicotinic acetylcholine receptor (Torpedo californica) (P02714 18-506 limits assumed, chain 3 of 4, further chain): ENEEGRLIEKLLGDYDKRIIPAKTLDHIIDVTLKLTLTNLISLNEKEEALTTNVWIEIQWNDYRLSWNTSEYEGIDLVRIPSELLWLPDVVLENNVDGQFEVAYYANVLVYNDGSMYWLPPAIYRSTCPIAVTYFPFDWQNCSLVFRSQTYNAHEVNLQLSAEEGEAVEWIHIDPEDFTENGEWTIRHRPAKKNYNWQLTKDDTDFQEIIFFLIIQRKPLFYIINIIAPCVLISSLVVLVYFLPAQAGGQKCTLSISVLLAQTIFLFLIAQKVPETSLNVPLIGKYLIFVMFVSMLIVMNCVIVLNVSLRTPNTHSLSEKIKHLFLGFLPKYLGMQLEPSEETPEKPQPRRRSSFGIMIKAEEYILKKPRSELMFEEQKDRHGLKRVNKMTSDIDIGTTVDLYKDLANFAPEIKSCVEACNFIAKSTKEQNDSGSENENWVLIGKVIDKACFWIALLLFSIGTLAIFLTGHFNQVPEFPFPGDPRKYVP
Chain of membrane-bound Torpedo californica nicotinic acetylcholine receptor (Torpedo californica) (P02718 22-522 limits assumed, chain 4 of 4, further chain): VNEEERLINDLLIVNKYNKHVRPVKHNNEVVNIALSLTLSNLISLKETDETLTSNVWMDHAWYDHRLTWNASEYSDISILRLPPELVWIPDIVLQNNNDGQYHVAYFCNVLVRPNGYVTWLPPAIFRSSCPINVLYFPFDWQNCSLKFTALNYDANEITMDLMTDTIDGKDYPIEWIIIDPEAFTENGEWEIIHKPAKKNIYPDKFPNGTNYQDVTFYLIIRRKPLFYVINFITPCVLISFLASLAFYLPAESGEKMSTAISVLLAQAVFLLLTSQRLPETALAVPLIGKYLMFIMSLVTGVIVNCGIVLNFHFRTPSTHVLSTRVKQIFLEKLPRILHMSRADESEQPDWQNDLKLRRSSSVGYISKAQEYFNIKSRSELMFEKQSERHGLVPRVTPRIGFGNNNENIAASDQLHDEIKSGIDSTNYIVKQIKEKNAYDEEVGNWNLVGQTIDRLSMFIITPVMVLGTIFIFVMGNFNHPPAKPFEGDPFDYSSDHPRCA
As to B1, the IC50 was 13.2 µM.

Take B2: the IC50 came out at 74.1 µM.

B3 gave an IC50 of 4.9 µM. Against the preceding molecule, the IC50 is about 15-fold lower.

As to B4, the IC50 turned out to be 15.6 µM.

In general, IC50 refers to the concentration needed to halve the response being measured.
